Test results reported in patent US7981691B2, “Two helix binders” (General Electric Company, priority 2006, dated 2011).
Positions of bridges follow the written chain, without caps; N, C: chain ends. Non-standard residues stand in square brackets, D forms with d. No end group written: not given here. Aib = CC(C)(N)C(=O)O

Assays:
[1] = CD spectroscopy of 2-helix scaffolds (secondary structure, helicity); format: physicochemical; details: Circular Dichroism
Protocol: Secondary structure of different 2-helix scaffold was determined by CD analysis. All CD spectra were obtained on an JASCO J-815 CD spectropolarimeter in the wavelength range of 250-185 nm using 1 nm bandwidth, 0.5 nm resolution, 4 seconds averaging time, 3 scan per sample, 0 second delay, and a path length of 1 mm. Spectra were recorded at 20° C., unless otherwise noted, in a thermostated circular cuvette, with peptide concentrations of 15 μM in 13 mM of K2HPO4 buffer at pH8. Results are reported as mean residue ellipticity (MRW).

[2] = biological target: T1, extracellular domain of the Her2/neu antigen (Fc-Her2) (Homo sapiens, UniProt P04626); test: SPR (BIAcore) binding of two helix peptides to immobilized Fc-Her2; details: relative binding by SPR
T1 construct: The extracellular domain of the Her2/neu antigen was obtained as a conjugate with the Fc region of human IgG; purchased R&D Systems

Row | binding to target molecule Her2 (in words) [2] | Sequence | helicity / population of helix conformers (in words) [1]
1 | unable to bind target molecule | VENKCNKEMRNAYWEIALLPNLNNQXKRAXIRSXYDDPC (VENKCNKEMRNAYWEIALLPNLNNQ[Aib]KRA[Aib]IRS[Aib]YDDPC-NH2; disulfide 5-39 (inferred)) [SEQ. ID. NO. 25] | helicity increases
2 | unable to bind target molecule | VENKCNKXMRNXYWEXALLPNLNNQQKRAFIRSLYDDPC (VENKCNK[Aib]MRN[Aib]YWE[Aib]ALLPNLNNQQKRAFIRSLYDDPC-NH2; disulfide 5-39 (inferred)) [SEQ. ID. NO. 24] | helicity increases
3 | unable to bind target molecule | VENKCNKXMRNXYWEXALLPNLNNQXKRAXIRSXYDDPC (VENKCNK[Aib]MRN[Aib]YWE[Aib]ALLPNLNNQ[Aib]KRA[Aib]IRS[Aib]YDDPC-NH2; disulfide 5-39 (inferred)) [SEQ. ID. NO. 26] | helicity increases
